According to US20130237684A1 (RESEARCH CORPORATION TECHNOLOGIES, published 2013):
Positions count from the first letter of the chain named. Square brackets hold non-standard residues; d marks the D form. Ends that are not written are not given here. * marks the point of attachment. hSer(lactone) = O=C1OCC[C@@H]1N*

Experiments:
[1] = target: T1, Yeast ubiquitin (Sigma) (yeast, UniProt P0CG63 1-76); experiment: clone isolated by phage display selection on ubiquitin; listed as ubiquitin-binding monobody
T1 construct: mature; also called soluble ubiquitin; free ubiquitin
T1 sequence (P0CG63 1-76 limits assumed): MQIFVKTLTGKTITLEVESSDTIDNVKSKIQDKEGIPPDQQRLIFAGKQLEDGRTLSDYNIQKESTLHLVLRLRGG

[2] = target: T2, C-terminal fragment of CD92 (FNfn10 cleaved in the CD loop) (human, UniProt P02751 1578-1631); experiment: size exclusion chromatography of the mixed fragments of CD92
T2 construct: Start at residue 43 is inferred from the N-terminal fragment ending at Asn42
T2 sequence (P02751 other isoform, or with tags, fused parts or gaps): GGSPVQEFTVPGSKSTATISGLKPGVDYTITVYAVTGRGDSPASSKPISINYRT
Description: Size exclusion chromatography was performed on the fragments of CD92 using a Sephadex75 gel filtration column.

[3] = target: T2, C-terminal fragment of CD92 (FNfn10 …); experiment: Trp fluorescence titrations, extrapolated to plain buffer in the reverse order
Description: (§1) A dissociation constant can be determined from a titration experiment where the concentration of the fluorophore is held constant and its corresponding binding partner is added. […] When measuring the dissociation constant, the concentration of the fluorophore has to be lower than or near the dissociation constant. To obtain a more accurate value, a series of titration experiments were performed at higher urea concentration, followed by subsequent extrapolation to compensate for the addition of urea.
(§2) To gain an extrapolation that excluded both glycerol and urea, a stepwise approach was taken that assumed that the two co-solutes had independent effects on the dissociation constant.

[4] = target: the molecule itself; experiment: self-association seen by NMR line broadening
[5] = target: T2, C-terminal fragment of CD92 (FNfn10 …); experiment: Trp fluorescence titration, 750 mM glycerol, 1 M urea, about 500 nM N-terminal fragment
Description: (§3) Proteins were dissolved to a final concentration of 500 nM in 20 mM sodium phosphate buffer at pH 6.0 containing 100 mM sodium chloride, 750 mM glycerol unless otherwise noted and various urea concentration between 1 M and 2.5 M. Urea concentration was determined using an Abbe refractometer (Spectronic Instruments) as described (Pace and Sholtz 1997). To obtain ([…] on the reconstitution at conditions without the addition of urea and glycerol, a series of C-terminal fragment-titration experiments with varying urea or glycerol concentrations, respectively, were performed. The dissociation constants in the absence of urea or glycerol were estimated by extrapolation based on experimental data
as §1

[6] = target: T2, C-terminal fragment of CD92 (FNfn10 …); experiment: Trp fluorescence titrations, extrapolated to no urea, 750 mM glycerol
Description: as §3, §1

[7] = target: T2, C-terminal fragment of CD92 (FNfn10 …); experiment: Trp fluorescence titrations, extrapolated to plain buffer (no urea, no glycerol)
Description: as §1, §2

[8] = target: T3, FN(C)-STAV11; experiment: flow cytometry of mated yeast: surface C-FN3-STAV11 by anti-V5/FITC, captured secreted N-FN3 by anti-FLAG/PE
T3 construct: also called C-FN3-STAV11
T3 chain: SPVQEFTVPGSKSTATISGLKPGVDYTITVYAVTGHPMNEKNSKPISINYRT

B1: ubiquitin-binding monobody 212 (Fn3 with BC loop CWRRA and FG loop RWVGLAW), phage clone (designed binder, not shown: large carriers; small tags and cut ends)
chain: VSDVPRDLEVVAATPTSLLISWDAPCWRRAYYRITYGETGGNSPVQEFTVPGSKSTATISGLKPGVDYTITVYAVTGRWVGLAWSKPISINYRT
notes: also called clone 212
Question: Does B1 bind [1]?
Answer: binds

B2: ubiquitin-binding monobody 215 (Fn3 with BC loop CNWRR and FG loop RAYRYRW), phage clone (designed binder, not shown: large carriers; small tags and cut ends)
chain: B1 chain with W27N, R28W, A30R, W79A, V80Y, G81R, L82Y, A83R
notes: also called clone 215
Question: Does B2 bind [1]?
Answer: binds

B3: ubiquitin-binding monobody 214 (Fn3 with BC loop CRRGR and FG loop RGFMWLS), phage clone (designed binder, not shown: large carriers; small tags and cut ends)
chain: B1 chain with W27R, R29G, A30R, W79G, V80F, G81M, L82W, A83L, W84S
notes: also called clone 214
Question: Does B3 bind [1]?
Answer: binds

B4: ubiquitin-binding monobody 213 (Fn3 with BC loop CKHRR and FG loop FADLWWR), phage clone (designed binder, not shown: large carriers; small tags and cut ends)
chain: B1 chain with W27K, R28H, A30R, R78F, W79A, V80D, G81L, L82W, A83W, W84R
notes: also called clone 213
Question: Does B4 bind [1]?
Answer: binds

Question: VSDVPRKLQVVAATPTSLLISWDAPAVTVRYYRITYGETGGNGG[hSer(lactone)] (other, not fully specified, also called mutant CD-loop fragment) was tested. Which Kd [2] did it give?
Answer: < 1000 nM

Question: What about the Kd [3] of the same binder?
Answer: 3.9 nM

Question: Does VSDVPRKLQVVAATPTSLLISWDAPAVTVRYYRITYGETGGNGG[hSer(lactone)] (other, not fully specified, also called mutant CD-loop fragment) bind [4]?
Answer: binds

Question: What about the Kd [5] of the same binder?
Answer: ~10 nM

Question: What about the Kd [6] of the same binder?
Answer: ~1.5 nM

Question: What about the Kd [7] of the same binder?
Answer: 3.6 nM

B5: N-FN3 (residues 1-42) followed by the FLAG tag, secreted from yeast (other)
chain: VSDVPRDLEVVAATPTSLLISWDAPAVTVRYYRITYGETGGN
notes: also called wild-type N-terminal fragment; pGalsecFN(N)FLAG; not shown: FLAG tag
Question: Does B5 bind [8]?
Answer: binds
